Results from paper PMC4879639 (2016).

Target: T1, recombinant mouse sortilin (mouse, UniProt Q6PHU5 74-754)
T1 chain: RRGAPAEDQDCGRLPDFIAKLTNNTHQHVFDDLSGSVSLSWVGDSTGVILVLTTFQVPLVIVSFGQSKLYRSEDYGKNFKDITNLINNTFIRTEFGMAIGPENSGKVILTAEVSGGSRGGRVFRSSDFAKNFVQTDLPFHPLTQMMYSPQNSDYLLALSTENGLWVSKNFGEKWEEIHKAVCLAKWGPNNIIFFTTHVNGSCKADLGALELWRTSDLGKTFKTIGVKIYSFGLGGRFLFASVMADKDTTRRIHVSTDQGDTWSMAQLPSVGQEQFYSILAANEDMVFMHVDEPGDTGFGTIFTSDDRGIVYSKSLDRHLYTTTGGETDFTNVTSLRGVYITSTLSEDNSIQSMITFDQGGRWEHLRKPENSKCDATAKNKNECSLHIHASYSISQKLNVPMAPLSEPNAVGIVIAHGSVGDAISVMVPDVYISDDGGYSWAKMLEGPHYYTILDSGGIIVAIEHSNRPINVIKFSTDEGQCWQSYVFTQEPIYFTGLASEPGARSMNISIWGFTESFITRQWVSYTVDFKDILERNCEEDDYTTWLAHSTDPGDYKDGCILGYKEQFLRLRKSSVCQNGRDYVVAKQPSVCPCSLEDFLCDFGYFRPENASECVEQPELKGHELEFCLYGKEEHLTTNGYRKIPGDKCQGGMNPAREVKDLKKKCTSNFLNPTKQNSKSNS
Test: SPR

| Binder | Kd |
| --- | --- |
| recombinant IFN-γ (ligand) HGTVIESLESLNNYFNSSGIDVEEKSLFLDIWRNWQKDGDMKILQSQIISFYLRLFEVLKDNQAISNNISVIESHLITTFFSNSKAKKDAFMSIAKFEVNNPQVQRQAFNELIRVVHQLLPESSLRKRKRSRC | 2.6 µM |
| GST-fused mouse IFN-α (ligand) CDLPHTYNLRNKRALKVLAQMRRLPFLSCLKDRQDFGFPLEKVDNQQIQKAQAIPVLRDLTQQTLNLFTSKASSAAWNATLLDSFCNDLHQQLNDLQTCLMQQVGVQEPPLTQEDALLAVRKYFHRITVYLREKKHSPCAWEVVRAEVWRALSSSVNLLPRLSEEKE | 0.55 µM |
| recombinant IL-10 (ligand) SRGQYSREDNNCTHFPVGQSHMLLELRTAFSQVKTFFQTKDQLDNILLTDSLMQDFKGYLGCQALSEMIQFYLVEVMPQAEKHGPEIKEHLNSLGEKLKTLRMRLRRCHRFLPCENKSKAVEQVKSDFNKLQDQGVYKAMNEFDIFINCIEAYMMIKMKS | 0.287 µM |
| recombinant IL-17A (ligand) AAIIPQSSACPNTEAKDFLQNVKVNLKVFNSLGAKVSSRRPSDYLNRSTSPWTLHRNEDPDRYPSVIWEAQCRHQRCVNAEGKLDHHMNSVLIQQEILVLKREPESCPFTFRVEKMLVGVGCTCVASIVRQAA | 0.335 µM |
| recombinant IL-12 (complex) chain 1: RVIPVSGPARCLSQSRNLLKTTDDMVKTAREKLKHYSCTAEDIDHEDITRDQTSTLKTCLPLELHKNESCLATRETSSTTRGSCLPPQKTSLMMTLCLGSIYEDLKMYQTEFQAINAALQNHNHQQIILDKGMLVAIDELMQSLNHNGETLRQKPPVGEADPYRVKMKLCILLHAFSTRVVTINRVMGYLSSA chain 2: MWELEKDVYVVEVDWTPDAPGETVNLTCDTPEEDDITWTSDQRHGVIGSGKTLTITVKEFLDAGQYTCHKGGETLSHSHLLLHKKENGIWSTEILKNFKNKTFLKCEAPNYSGRFTCSWLVQRNMDLKFNIKSSSSSPDSRAVTCGMASLSAEKVTLDQRDYEKYSVSCQEDVTCPTAEETLPIELALEARQQNKYENYSTSFFIRDIIKPDPPKNLQMKPLKNSQVEVSWEYPDSWSTPHSYFSLKFFVRIQRKKEKMKETEEGCNQKGAFLVEKTSTEVQCKGGNVCVQAQDRYYNSSCSKWACVPCRVRS | 0.0136 µM |
| recombinant IL-6 (ligand) FPTSQVRRGDFTEDTTPNRPVYTTSQVGGLITHVLWEIVEMRKELCNGNSDCMNNDDALAENNLKLPEIQRNDGCYQTGYNQEICLLKISSGLLEYHSYLEYMKNNLKDNKKDKARVLQRDTETLIHIFNQEVKDLHKIVLPTPISNALLTDKLESQKEWLRTKTIQFILKSLEEFLKVTLRSTRQT | 1.1 µM |
